According to publication PMC2926592:

How the values were obtained:
[1] = biological target: human XRCC1 R109A variant, recombinant, S-peptide- and His-tagged (human) (UniProt P18887); assay: pull-down
[2] = biological target: human XRCC1 P161L population variant, recombinant, S-peptide- and His-tagged (human) (UniProt P18887); assay: pull-down

“DNA polymerase β (POLβ), recombinant (from UniProt P06746 1-335) (enzyme)” was tested, and the fold decrease in POLβ retention against WT XRCC1 [1] was 5 fold, the percent decrease in POLβ retention against WT XRCC1 [1] was 83% and the percent decrease in POLβ retention against WT XRCC1 [2] was 20%.
